Results taken from the supplement of paper PMC9170038.

System: MS2 coat protein
Assay: apparent KD of MS2 coat protein; designed switch direction (-1 OFF switch, 1 ON switch): -1; higher = weaker reporter binding
Procedure, shortened: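 Apparent KD, taken as the median over clusters for each design, was obtained by curve-fitting normalised cluster fluorescence. Designed RNA switches had been transcribed on Illumina chips by stalled E. coli RNA polymerase and titrated with SNAP-549-labelled MS2 coat protein, doubling from 0.7 or 1.5 nM to 3 µM.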

[1] = input ligand: microRNA oligo, concentration not stated
[2] = Eterna round: R95, input ligand: microRNA oligo, concentration not stated
[3] = Eterna round: R95, input ligand: FMN 200 uM
[4] = Eterna round: R95, input ligand: none

Row | Sequence | apparent KD of MS2 coat protein (input ligand: FMN 200 uM) [nM] | apparent KD of MS2 coat protein (input ligand: none) [nM] | apparent KD of MS2 coat protein [2] [nM] | also measured
1 | GCUCGCGGGCAAGGAUAUCCUACGCUGUUCUGGCUCGUGUCUGUUACAUGAGGAUCACCCAUGUGGGAGAAGGUGCACCAGGGC [Design 47] (Eterna round: R96, puzzle: Exclusion NG 2) | 24.9 | 22.6 |  | apparent KD of MS2 coat protein [1]: 17.4 nM
2 | GCUGCGCGAGGAUAUGCGGUUCGCGCGGUGGCCGCUGGCGGACAUGAGGAUCACCCAUGUAGAAGGCGUGCGGG [Apr-15 SS2-60] (puzzle: Exclusion 2) |  |  | 11.7 | 
3 | GCUGCGCGAGGAUAUGCGGUUUGCGCUGUGGCCCGUGGCGUACAUGAGGAUCACCCAUGUAGAAGGCGUGCGGG [Apr-15 SS2-56] (puzzle: Exclusion 2) |  |  | 10.4 | 
4 | GCUGGACGAGGAUAUACAUGAGGAUCACCCAUGUGAUCAGCAGUCCUCGGACUGCAAUGUAGAAGGUGUCCAGC [E3/1-B2] (Eterna round: R97, puzzle: Exclusion 3) | 302 | 2320 |  | 
5 | GCUGGUCAAGGAUAUACAUUCGUGCUUCGGCACGUAAGAUCACAUGAGGAUCACCCAUGUAGAAGGUGACCAGC [E2/5-C1] (Eterna round: R97, puzzle: Exclusion 2) | 700 | 112 |  | 
6 | GCUGGUCGAGGAUAUACAUAACGUGCUUCGGCACGAGAUCUACAUGAGGAUCACCCAUGUAGAAGGCGACCAGC [E2/10-A1] (Eterna round: R97, puzzle: Exclusion 2) | 57.8 | 18 |  | 
7 | GCUUGGCGAGGAUAUACAUGAGGAUCACCCAUGUGAGAGAAAGAAGUGAGGAAGAAAAGUAGAAGGCGCUGAGG [Mat - Exclusion 3 - Mod of Salish D60] (puzzle: Exclusion 3) |  |  | 50.5 | apparent KD of MS2 coat protein [3]: 165 nM; apparent KD of MS2 coat protein [4]: 75.4 nM
8 | GCUUGUAGAGGAUAUACAAGGGCCUUAGCGGAAAACUCCGCACAUGAGGAUCACCCAUGUAGAAGGCUACCACC [Isrianqu] (puzzle: Exclusion 2) |  |  | 15.1 | 
9 | GCUUUUCUUUUCCUUUCUUACAUGAGGAUCACCCAUGUUUCUUGUCGCGCUCGCGUUGCUCGUCUGUCUGUCUGUUG [salish99_TOv1_r3_079] (puzzle: Sensor v3, turn-off variant 1) |  |  | 28.9 | apparent KD of MS2 coat protein [3]: 43.1 nM; apparent KD of MS2 coat protein [4]: 54.7 nM
10 | GGAAAACAUGAGGAUCACCCAUGUAAGGAUAUGCAAAAGGAUAUAGAAGGAAGAAAAAGCAGAAGGUACAAAGG [salish99-ex1_r3_099] (puzzle: Exclusion 1) |  |  | 44.8 | apparent KD of MS2 coat protein [3]: 72.1 nM; apparent KD of MS2 coat protein [4]: 57.9 nM
11 | GGAAAGGUAGGAUAUACGAAGAAAAAGGGUAGAAUAAUAACACAUGAGGAUCACCCAUGUAGAAGGACCAAAUG [Mat - Exclusion 2 - Mod of my Tesla design - D7] (puzzle: Exclusion 2) |  |  | 37.8 | apparent KD of MS2 coat protein [3]: 71.1 nM; apparent KD of MS2 coat protein [4]: 29 nM
12 | GGAACGCGAGGAUAUACAAGGCCGGAAACGGAAAUAGCCUCACAUGAGGAUCACCCAUGUAGAAGGCGCGGAGA [AK-MS2ROC-r4-exclusion2-26] (Eterna round: R97, puzzle: Exclusion 2) | 175 | 22.1 |  | 
13 | GGAAUACAUGAGGAUCACCCAUGUAAGGAUAUGCUGAAUAACACGGAAUUAACGUGCAGCAGAAGGUACAAAUG [Mat - Mod of my Eli Mod D44] (puzzle: Exclusion 1) |  |  | 112 | apparent KD of MS2 coat protein [3]: 105 nM; apparent KD of MS2 coat protein [4]: 93.2 nM
14 | GGAAUGUAAGGAUAUCCGAAAGGCGAGCGAAAGCGAGCAAAGGAGAAGGUACAUGAGGAUCACCCAUGUAAGGG [AK-MS2ROC-r4-exclusion4-11.3] (Eterna round: R97, puzzle: Exclusion 4) | 163 | 513 |  | 
15 | GGACAUAAAGUCAGGAUAUUAAGGCGAACAAGCGAUGAGAAGGGACAUGAGGAUCACCCAUGUGAUUCUCAUCA [Isedzaor] (Eterna round: R97, puzzle: Brourd's mod of Exclusion 4) | 20.5 | 14 |  | 
16 | GGACCCAAAGGAUAUACUUGAGGAUCACCCAAGUAUGUCGCUUGGGCACGGUAAAGGAGUAGAAGGUUGGGAAA [Esri] (Eterna round: R97, puzzle: Exclusion 3) | 17.6 | 14.4 |  | 
17 | GGACCGUGAGGAUAUAGAGGUCGCGUCAUAGGGCGUGGUUACUAGAAGGCACAUGAGGAUCACCCAUGUUCAUC [Eternabot (L1) Solution 7] (Eterna round: R97, puzzle: Exclusion 4) | 50.4 | 19.7 |  | 

Row | Sequence | apparent KD of MS2 coat protein (input ligand: FMN 200 uM) [nM] | apparent KD of MS2 coat protein (input ligand: none) [nM] | apparent KD of MS2 coat protein [2] [nM] | also measured
18 | GGAGAGAGGCAGGAUAUGGGAGGGAGGACCGGACCAGAAGGGUUGACAUGAGGAUCACCCAUGUAGAGAUCCUC [AK-MS2ROC-r4-exclusion6-6.8] (Eterna round: R97, puzzle: Exclusion 6) | 563 | 1140 |  | 
19 | GGAGGAAGAGAGGAUAUGCGCUCAAGGAGAAAAGCAGAAGGUUCAACAUGAGGAUCACCCAUGUAUGAUCCUCA [AK-MS2ROC-r4-exclusion6-4] (Eterna round: R97, puzzle: Exclusion 6) | 342 | 203 |  | 
20 | GGAUCGAAUGUGAGGAUAUGCAGGUCCUUGGAUCUGCAGAAGGCACAUGAGGAUCACCCAUGUGACCUAGAUCC [Mat - Exclusion 4 - Eli Mod - D44] (Eterna round: R97, puzzle: Brourd's mod of Exclusion 4) | 268 | 30.5 |  | 
21 | GGAUCGAGUGUGAGGAUAUACCACUGGAUACAGUGGUAGAAGGCACAUGAGGAUCACCCAUGUCUCUACGAUCC [Fiskers BMX 4 - 44] (puzzle: Brourd's mod of Exclusion 4) |  |  | 16.3 | 
22 | GGAUCGUAUGUCAGGAUAUACCACUGGAUACAGUGGUAGAAGGGACAUGAGGAUCACCCAUGUGUUAUCGAUCC [Fiskers BMX 4 - 55] (puzzle: Brourd's mod of Exclusion 4) |  |  | 41.5 | 
23 | GGAUCUUGGGUCAGGAUAUGCUGGUAUUUUUGCCAGCAGAAGGGACAUGAGGAUCACCCAUGUUCUUGGUUUUG [Magic-15] (puzzle: Brourd's mod of Exclusion 4) |  |  | 11 | 
24 | GGCAAUAUGUAGGAUAUCGUAUUGGAAACAAUACGAGAAGGGCAAACAUGAGGAUCACCCAUGUUCCUUAAGCC [Mat - Exclusion 6 - Eli Mod - D68] (puzzle: Exclusion 6) |  |  | 17.6 | apparent KD of MS2 coat protein [3]: 18.6 nM; apparent KD of MS2 coat protein [4]: 16.6 nM
25 | GGCAUCGGAGGAUAUACUUAUGGUGAUACCAGAAGCUUUCUACUUGAGGAUCACCCAAGUAGAAGGCCGAUGCC [jl-ex2.4.86 ViennaUCT mod] (Eterna round: R97, puzzle: Exclusion 2) | 17.5 | 26.2 |  | 
26 | GGCGCCUCAGGAUAUCAGUCUGGAUCAGAAUAGAUCCUGACUGAGAAGGGACAUGAGGAUCACCCAUGUUCGCC [Eli 4x 4.29] (Eterna round: R97, puzzle: Exclusion 4) | 20.8 | 18.9 |  | 
27 | GGCGGACAUGAGGAUCACCCAUGUUAGGAUAUGGUGCGAUCGUCGAUAGACGAUAGCACCAGAAGGGACACGCC [Mat - Exclusion 1 - Eli Mod - D2] (Eterna round: R97, puzzle: Exclusion 1) | 16.6 | 16.9 |  | 
28 | GGGAAGGGAGGAUAUGAGGGAGAGAACAUGAGGAUCACCCAUGUGAGACCUCAGGAUCGAUCAGAAGGCCCGACCC [AK-MS2ROC-r4-exclusion5-13.1] (Eterna round: R97, puzzle: Exclusion 5) | 824 | 92.2 |  | 
29 | GGGAGCAGACGGAGAUCCAACAUGAGGAUCACCCAUGUCUCCCAAGCUUUUUGCUUGUCUUAUCCUCCUCUGUUUCC [Design #9] (Eterna round: R97, puzzle: Sensor, turn-off variant 1) | 17.2 | 17.6 |  | 
30 | GGGAGGGAUACAGGAUAUAUGACAUGAGGAUACAUGAGACAUACAAACAUGAGGAUCACCCAUGUAUAGAAGGGUAAGGGAGGG [Another guess] (Eterna round: R96, puzzle: Exclusion NG 2) |  |  |  | apparent KD of MS2 coat protein [1]: 126 nM
31 | GGGAUGUCAGGAUAUCCGAAAGUCUGCCAAUACGGCAGACAGGAGAAGGGACAUGAGGAUCACCCAUGUAAAGA [Aedxear] (puzzle: Exclusion 4) |  |  | 59.4 | apparent KD of MS2 coat protein [3]: 120 nM; apparent KD of MS2 coat protein [4]: 49.4 nM
32 | GGGAUGUGAGGAUAUCGAGGUGGAAAGCACCUAACAGAAAACGAGAAGGCACAUGAGGAUCACCCAUGUAAUAC [Ditete] (puzzle: Exclusion 4) |  |  | 19.5 | apparent KD of MS2 coat protein [3]: 54.6 nM; apparent KD of MS2 coat protein [4]: 19.8 nM
33 | GGGCAAUUAGGAUAUACAUGAGGAUCACCCAUGUGGAAGCCCGGACAGGUAAUCCACUGUAGAAGGGAUUGCGG [Userqube] (puzzle: Exclusion 3) |  |  | 13.5 | 
